This note sets out measurements from IntAct's records for PubMed 30510991.

B1: Forkhead box protein P3 (Homo sapiens), Q9BZS1 (parent)
chain: MPNPRPGKPSAPSLALGPSPGASPSWRAAPKASDLLGARGPGGTFQGRDLRGGAHASSSSLNPMPPSQLQLPTLPLVMVAPSGARLGPLPHLQALLQDRPHFMHQLSTVDAHARTPVLQVHPLESPAMISLTPPTTATGVFSLKARPGLPPGINVASLEWVSREPALLCTFPNPSAPRKDSTLSAVPQSSYPLLANGVCKWPGCEKVFEEPEDFLKHCQADHLLDEKGRAQCLLQREMVQSLEQQLVLEKEKLSAMQAHLAGKMALTKASSVASSDKGSCCIVAAGSQGPVVPAWSGPREAPDSLFAVRRHLWGSHGNSTFPEFLHNMDYFKFHNMRPPFTYATLIRWAILEAPEKQRTLNEIYHWFTRMFAFFRNHPATWKNAIRHNLSLHKCFVRVESEKGAVWTVDELEFRKKRSQRPSRCSNPTPGP

Variants of B1 are the subject of the experiment. As to conditions: with ezh2_human EZH2, Q15910.
Sequence of ezh2_human EZH2, Q15910 (Q15910 whole entry, looked up): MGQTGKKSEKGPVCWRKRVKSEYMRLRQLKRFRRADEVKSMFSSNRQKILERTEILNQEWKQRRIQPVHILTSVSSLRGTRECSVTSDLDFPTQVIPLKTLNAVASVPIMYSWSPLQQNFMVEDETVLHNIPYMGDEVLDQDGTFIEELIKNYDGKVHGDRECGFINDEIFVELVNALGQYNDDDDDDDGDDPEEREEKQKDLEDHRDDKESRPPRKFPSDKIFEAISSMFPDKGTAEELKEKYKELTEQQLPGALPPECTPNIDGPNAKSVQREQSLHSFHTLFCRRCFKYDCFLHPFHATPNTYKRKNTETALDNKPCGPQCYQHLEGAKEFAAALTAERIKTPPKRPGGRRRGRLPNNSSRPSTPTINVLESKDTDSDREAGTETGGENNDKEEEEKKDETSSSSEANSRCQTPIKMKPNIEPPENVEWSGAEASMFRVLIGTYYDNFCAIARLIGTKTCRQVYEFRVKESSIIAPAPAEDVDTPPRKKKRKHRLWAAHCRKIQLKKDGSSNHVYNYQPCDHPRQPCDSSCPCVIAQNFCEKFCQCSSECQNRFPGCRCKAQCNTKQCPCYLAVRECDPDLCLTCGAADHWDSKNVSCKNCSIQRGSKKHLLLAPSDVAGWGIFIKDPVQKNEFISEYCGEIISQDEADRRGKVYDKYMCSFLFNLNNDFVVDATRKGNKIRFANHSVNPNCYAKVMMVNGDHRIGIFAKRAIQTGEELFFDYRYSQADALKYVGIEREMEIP
MPNPRPGKPSAPSLALGPSPGASPSWRAAPKASDLLGARGPGGTFQGRDLRGGAHASSSSLNPMPPSQLQLPTLPLVMVAPSGARLGPLPHLQALLQDRPHFMHQLSTVDAHARTPVLQVHPLESPAMISLTPPTTATGVFSLKARPGLPPGINVASLEWVSREPALLCTFPNPSAPRKDSTLSAVPQSSYPLLANGVCKWPGCEKVFEEPEDFLKHCQADHLLDEKGRAQGLLQREMVQSLEQQLVLEKEKLSAMQAHLAGKMALTKASSVASSDKGSCCIVAAGSQGPVVPAWSGPREAPDSLFAVRRHLWGSHGNSTFPEFLHNMDYFKFHNMRPPFTYATLIRWAILEAPEKQRTLNEIYHWFTRMFAFFRNHPATWKNAIRHNLSLHKCFVRVESEKGAVWTVDELEFRKKRSQRPSRCSNPTPGP [C232G]: the “effect of a mutation on the interaction” value is given as “decreasing interaction”.
